According to patent US20260152562A1:

Tests used:
Test in all cases: cell-based or functional assay
[1] = target: Anti-EGFR Activatable Antibody c225v5-3954-5011
[2] = target: Anti-EGFR Activatable Antibody c225v5-3954-2001
[3] = target: Anti-EGFR Activatable Antibody C225v5-3954-4008 (linker form not stated)
[4] = target: Anti-EGFR Activatable Antibody c225v5-3954-5007; for Cleavability (%) Matriptase: test concentration or dose not given here; for Cleavability (%) Neutrophil Elastase: test concentration or dose not given here
[5] = target: Anti-EGFR Activatable Antibody c225v5-3954-3001
[6] = target: Anti-EGFR Activatable Antibody c225v5-3954-5013; for Cleavability (%) Matriptase: test concentration or dose not given here
[7] = target: Anti-EGFR Activatable Antibody c225v5-3954-5006; for Cleavability (%) MMP14: test concentration or dose not given here; for Cleavability (%) Neutrophil Elastase: test concentration or dose not given here
[8] = target: Anti-EGFR Activatable Antibody with substrate 4001 (linker form not stated); for Cleavability (%) MMP14: test concentration or dose not given here
[9] = target: Anti-EGFR Activatable Antibody c225v5-3954-5004
[10] = target: Anti-EGFR Activatable Antibody c225v5-3954-4007SL
[11] = target: Anti-EGFR Activatable Antibody c225v5-3954-5003; for Cleavability (%) MMP14: test concentration or dose not given here
[12] = target: Anti-EGFR Activatable Antibody c225v5-3954-4002SL
[13] = target: Anti-EGFR Activatable Antibody c225v5-3954-4014SL; for MMP14 Cleavability (%): test concentration or dose not given here
[14] = target: Anti-EGFR Activatable Antibody c225v5-3954-5008; for Cleavability (%) Matriptase: test concentration or dose not given here; for Cleavability (%) Neutrophil Elastase: test concentration or dose not given here
[15] = target: Anti-EGFR Activatable Antibody c225v5-3954-4009SL
[16] = target: Anti-EGFR Activatable Antibody c225v5-3954-5002; for Cleavability (%) Neutrophil Elastase: test concentration or dose not given here
[17] = target: Anti-EGFR Activatable Antibody c225v5-3954-4006SL
[18] = target: Anti-EGFR Activatable Antibody c225v5-3954-4004LL
[19] = target: Anti-EGFR Activatable Antibody c225v5-3954-4003SL
[20] = target: Anti-EGFR Activatable Antibody c225v5-3954-4001SL
[21] = target: Anti-EGFR Activatable Antibody c225v5-3954-4001LL; for MMP14 Cleavability (%): test concentration or dose not given here
[22] = target: Anti-EGFR Activatable Antibody c225v5-3954-4008LL
[23] = target: Anti-EGFR Activatable Antibody c225v5-3954-4006LL; for MMP14 Cleavability (%): test concentration or dose not given here
[24] = target: Anti-EGFR Activatable Antibody c225v5-3954-4005SL; for MMP14 Cleavability (%): test concentration or dose not given here
[25] = target: Anti-EGFR Activatable Antibody c225v5-3954-5010
[26] = target: Anti-EGFR Activatable Antibody c225v5-3954-5009
[27] = target: Anti-EGFR Activatable Antibody c225v5-3954-4010SL
[28] = target: Anti-EGFR Activatable Antibody c225v5-3954-5005
[29] = target: Anti-EGFR Activatable Antibody c225v5-3954-4015LL
[30] = target: Anti-EGFR Activatable Antibody c225v5-3954-4012SL
[31] = target: Anti-EGFR Activatable Antibody c225v5-3954-4011SL
[32] = target: Anti-EGFR Activatable Antibody c225v5-3954-5012
[33] = target: Anti-EGFR Activatable Antibody c225v5-3954-5001; for Cleavability (%) MMP14: test concentration or dose not given here; for Cleavability (%) Matriptase: test concentration or dose not given here

Sequence of recombinant neutrophil elastase (P08246 30-267 limits assumed): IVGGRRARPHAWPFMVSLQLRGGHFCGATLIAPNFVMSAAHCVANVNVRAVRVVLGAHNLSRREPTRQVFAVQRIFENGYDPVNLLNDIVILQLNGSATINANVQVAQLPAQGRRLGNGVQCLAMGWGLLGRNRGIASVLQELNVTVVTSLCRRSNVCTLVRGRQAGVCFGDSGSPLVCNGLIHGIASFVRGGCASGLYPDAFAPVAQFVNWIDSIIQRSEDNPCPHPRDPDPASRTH
Sequence of recombinant MMP2 (P08253 110-660 limits assumed): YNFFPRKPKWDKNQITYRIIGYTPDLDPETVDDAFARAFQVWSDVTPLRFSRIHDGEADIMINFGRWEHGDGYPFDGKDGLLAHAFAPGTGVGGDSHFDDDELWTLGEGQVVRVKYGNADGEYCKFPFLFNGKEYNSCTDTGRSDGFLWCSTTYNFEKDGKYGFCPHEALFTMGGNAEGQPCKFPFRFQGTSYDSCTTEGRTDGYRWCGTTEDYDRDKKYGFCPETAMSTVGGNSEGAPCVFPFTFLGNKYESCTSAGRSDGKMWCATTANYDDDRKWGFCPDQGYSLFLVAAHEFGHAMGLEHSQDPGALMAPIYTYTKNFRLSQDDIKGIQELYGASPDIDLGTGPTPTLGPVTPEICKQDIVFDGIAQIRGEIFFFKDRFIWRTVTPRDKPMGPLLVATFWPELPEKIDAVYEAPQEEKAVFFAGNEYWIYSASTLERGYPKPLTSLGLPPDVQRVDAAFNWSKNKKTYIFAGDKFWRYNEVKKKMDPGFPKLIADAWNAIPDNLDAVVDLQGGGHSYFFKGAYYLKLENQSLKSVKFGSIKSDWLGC
Sequence of recombinant matriptase (Q9Y5Y6 615-855 limits assumed): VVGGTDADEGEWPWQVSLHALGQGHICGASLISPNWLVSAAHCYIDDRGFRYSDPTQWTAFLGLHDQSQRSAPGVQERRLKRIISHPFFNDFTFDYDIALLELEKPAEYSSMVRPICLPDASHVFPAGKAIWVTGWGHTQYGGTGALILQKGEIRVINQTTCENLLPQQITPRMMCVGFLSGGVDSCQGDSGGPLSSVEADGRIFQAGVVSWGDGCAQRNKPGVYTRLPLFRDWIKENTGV

## recombinant MMP2 (from UniProt P08253 110-660) (enzyme)
[1]
  Kcat/Km (M^-1 s^-1) MMP2: 3380 M⁻¹ s⁻¹
[2]
  Kcat/Km (M^-1 s^-1) MMP2: 13200 M⁻¹ s⁻¹
[3]
  Kcat/Km (M^-1 s^-1) MMP2: 13000 M⁻¹ s⁻¹
[4]
  Kcat/Km (M^-1 s^-1) MMP2: 98300 M⁻¹ s⁻¹
[5]
  Kcat/Km (M^-1 s^-1) MMP2: 310000 M⁻¹ s⁻¹
[6]
  Kcat/Km (M^-1 s^-1) MMP2: 76500 M⁻¹ s⁻¹
[7]
  Kcat/Km (M^-1 s^-1) MMP2: 36900 M⁻¹ s⁻¹
[8]
  Kcat/Km (M^-1 s^-1) MMP2: 57600 M⁻¹ s⁻¹

## recombinant MMP9 (from UniProt P14780 107-707) (enzyme)
[1]
  Cleavability (%) MMP9: 55%
  Kcat/Km (M^-1 s^-1) MMP9: 4180 M⁻¹ s⁻¹
[9]
  Cleavability (%) MMP9: 86%
[10]
  MMP9 Cleavability (%): 69.5%
[11]
  Cleavability (%) MMP9: 100%
[2]
  Cleavability (%) MMP9: 22%
  Kcat/Km (M^-1 s^-1) MMP9: 394 M⁻¹ s⁻¹
[12]
  MMP9 Cleavability (%): 87.5%
[13]
  MMP9 Cleavability (%): 0%
[14]
  Cleavability (%) MMP9: 100%
[15]
  MMP9 Cleavability (%): 22.1%
[16]
  Cleavability (%) MMP9: 37%
[3]
  Cleavability (%) MMP9: 100%
  Kcat/Km (M^-1 s^-1) MMP9: 18700 M⁻¹ s⁻¹
[4]
  Cleavability (%) MMP9: 77%
  Kcat/Km (M^-1 s^-1) MMP9: 25300 M⁻¹ s⁻¹
[17]
  MMP9 Cleavability (%): 92.9%
[18]
  MMP9 Cleavability (%): 29.8%
[5]
  Kcat/Km (M^-1 s^-1) MMP9: 50500 M⁻¹ s⁻¹
[19]
  MMP9 Cleavability (%): 6%
[20]
  MMP9 Cleavability (%): 94.5%
[21]
  MMP9 Cleavability (%): 100%
[22]
  MMP9 Cleavability (%): 55.2%
[23]
  MMP9 Cleavability (%): 90.8%
[24]
  MMP9 Cleavability (%): 70.5%
[25]
  Cleavability (%) MMP9: 0%
[26]
  Cleavability (%) MMP9: 78%
[27]
  MMP9 Cleavability (%): 18%
[28]
  Cleavability (%) MMP9: 72%
[6]
  Cleavability (%) MMP9: 62%
  Kcat/Km (M^-1 s^-1) MMP9: 10400 M⁻¹ s⁻¹
[29]
  MMP9 Cleavability (%): 90%
[30]
  MMP9 Cleavability (%): 56.5%
[31]
  MMP9 Cleavability (%): 78.8%
[7]
  Cleavability (%) MMP9: 81%
  Kcat/Km (M^-1 s^-1) MMP9: 33900 M⁻¹ s⁻¹
[32]
  Cleavability (%) MMP9: 52%
[8]
  Cleavability (%) MMP9: 100%
  Kcat/Km (M^-1 s^-1) MMP9: 8840 M⁻¹ s⁻¹
[33]
  Cleavability (%) MMP9: 76%

## recombinant MMP14 (from UniProt P50281 112-538) (enzyme)
[1]
  Cleavability (%) MMP14: 7%
  Kcat/Km (M^-1 s^-1) MMP14: 444 M⁻¹ s⁻¹
[9]
  Cleavability (%) MMP14: 19%
[10]
  MMP14 Cleavability (%): 0%
[11]
  Cleavability (%) MMP14: 20%
[2]
  Cleavability (%) MMP14: 58%
  Kcat/Km (M^-1 s^-1) MMP14: 6330 M⁻¹ s⁻¹
[12]
  MMP14 Cleavability (%): 85.9%
[13]
  MMP14 Cleavability (%): 30.5%
[14]
  Cleavability (%) MMP14: 55%
[15]
  MMP14 Cleavability (%): 0%
[16]
  Cleavability (%) MMP14: 58%
[3]
  Cleavability (%) MMP14: 6%
  Kcat/Km (M^-1 s^-1) MMP14: 230 M⁻¹ s⁻¹
[4]
  Cleavability (%) MMP14: 90%
  Kcat/Km (M^-1 s^-1) MMP14: 9250 M⁻¹ s⁻¹
[17]
  MMP14 Cleavability (%): 85.7%
[18]
  MMP14 Cleavability (%): 46.2%
[5]
  Kcat/Km (M^-1 s^-1) MMP14: 17000 M⁻¹ s⁻¹
[19]
  MMP14 Cleavability (%): 53.1%
[20]
  MMP14 Cleavability (%): 96.5%
[21]
  MMP14 Cleavability (%): 100%
[22]
  MMP14 Cleavability (%): 0%
[23]
  MMP14 Cleavability (%): 84.2%
[24]
  MMP14 Cleavability (%): 24.4%
[25]
  Cleavability (%) MMP14: 11%
[26]
  Cleavability (%) MMP14: 9%
[27]
  MMP14 Cleavability (%): 0%
[28]
  Cleavability (%) MMP14: 34%
[6]
  Cleavability (%) MMP14: 78%
  Kcat/Km (M^-1 s^-1) MMP14: 7770 M⁻¹ s⁻¹
[29]
  MMP14 Cleavability (%): 0%
[30]
  MMP14 Cleavability (%): 0%
[31]
  MMP14 Cleavability (%): 9.9%
[7]
  Cleavability (%) MMP14: 6%
  Kcat/Km (M^-1 s^-1) MMP14: 564 M⁻¹ s⁻¹
[32]
  Cleavability (%) MMP14: 72%
[8]
  Cleavability (%) MMP14: 77%
  Kcat/Km (M^-1 s^-1) MMP14: 6010 M⁻¹ s⁻¹
[33]
  Cleavability (%) MMP14: 76%

## recombinant legumain (from UniProt Q99538 18-323) (enzyme)
[1]
  Cleavability (%) Legumain: 0%
[9]
  Cleavability (%) Legumain: 27%
[11]
  Cleavability (%) Legumain: 0%
[2]
  Cleavability (%) Legumain: 5%
[14]
  Cleavability (%) Legumain: 0%
[16]
  Cleavability (%) Legumain: 21%
[3]
  Cleavability (%) Legumain: 0%
[4]
  Cleavability (%) Legumain: 0%
[5]
  Cleavability (%) Legumain: 0%
[25]
  Cleavability (%) Legumain: 0%
[26]
  Cleavability (%) Legumain: 0%
[28]
  Cleavability (%) Legumain: 0%
[6]
  Cleavability (%) Legumain: 9%
[7]
  Cleavability (%) Legumain: 0%
[32]
  Cleavability (%) Legumain: 7%
[8]
  Cleavability (%) Legumain: 0%
[33]
  Cleavability (%) Legumain: 0%

## recombinant matriptase (from UniProt Q9Y5Y6 615-855) (enzyme)
[1]
  Cleavability (%) Matriptase: 80%
  Kcat/Km (M^-1 s^-1) Matriptase: 1430 M⁻¹ s⁻¹
[9]
  Cleavability (%) Matriptase: 75%
[11]
  Cleavability (%) Matriptase: 99%
[2]
  Cleavability (%) Matriptase: 53%
  Kcat/Km (M^-1 s^-1) Matriptase: 2550 M⁻¹ s⁻¹
[14]
  Cleavability (%) Matriptase: 98%
[16]
  Cleavability (%) Matriptase: 100%
[3]
  Cleavability (%) Matriptase: 40%
  Kcat/Km (M^-1 s^-1) Matriptase: 476 M⁻¹ s⁻¹
[4]
  Cleavability (%) Matriptase: 100%
  Kcat/Km (M^-1 s^-1) Matriptase: 27200 M⁻¹ s⁻¹
[5]
  Kcat/Km (M^-1 s^-1) Matriptase: 5350 M⁻¹ s⁻¹
[25]
  Cleavability (%) Matriptase: 0%
[26]
  Cleavability (%) Matriptase: 100%
[28]
  Cleavability (%) Matriptase: 6%
[6]
  Cleavability (%) Matriptase: 0%
  Kcat/Km (M^-1 s^-1) Matriptase: 0 M⁻¹ s⁻¹
[7]
  Cleavability (%) Matriptase: 100%
  Kcat/Km (M^-1 s^-1) Matriptase: 5370 M⁻¹ s⁻¹
[32]
  Cleavability (%) Matriptase: 0%
[8]
  Cleavability (%) Matriptase: 0%
  Kcat/Km (M^-1 s^-1) Matriptase: 0 M⁻¹ s⁻¹
[33]
  Cleavability (%) Matriptase: 100%

## recombinant neutrophil elastase (from UniProt P08246 30-267) (enzyme)
[1]
  Cleavability (%) Neutrophil Elastase: 100%
  Kcat/Km (M^-1 s^-1) Neutrophil Elastase: 665000 M⁻¹ s⁻¹
[9]
  Cleavability (%) Neutrophil Elastase: 84%
[11]
  Cleavability (%) Neutrophil Elastase: 77%
[2]
  Cleavability (%) Neutrophil Elastase: 18%
  Kcat/Km (M^-1 s^-1) Neutrophil Elastase: 3170 M⁻¹ s⁻¹
[14]
  Cleavability (%) Neutrophil Elastase: 66%
[16]
  Cleavability (%) Neutrophil Elastase: 67%
[3]
  Cleavability (%) Neutrophil Elastase: 28%
[4]
  Cleavability (%) Neutrophil Elastase: 74%
  Kcat/Km (M^-1 s^-1) Neutrophil Elastase: 24200 M⁻¹ s⁻¹
[5]
  Cleavability (%) Neutrophil Elastase: 52%
  Kcat/Km (M^-1 s^-1) Neutrophil Elastase: 19100 M⁻¹ s⁻¹
[25]
  Cleavability (%) Neutrophil Elastase: 100%
[26]
  Cleavability (%) Neutrophil Elastase: 31%
[28]
  Cleavability (%) Neutrophil Elastase: 81%
[6]
  Cleavability (%) Neutrophil Elastase: 56%
[7]
  Cleavability (%) Neutrophil Elastase: 30%
[32]
  Cleavability (%) Neutrophil Elastase: 55%
[8]
  Cleavability (%) Neutrophil Elastase: 37%
[33]
  Cleavability (%) Neutrophil Elastase: 88%
